“And” between values parts separate entries of the source, which are not always exact repeats. Equal values may be shown once.
What was measured:
[1] = target: Spa33-C (expressed alone from pET28b-Spa33-C, tag removed, 15N-labelled) (Shigella flexneri) (UniProt P0A1K9); test: native MS; purified proteins or co-expressed, co-purified complexes, buffer-exchanged in 200 mM ammonium acetate pH 7.5; non-denaturing conditions; Synapt HDMS
[2] = target: Spa33-Cstrep (Spa33-C with an eight residue C-terminal Strep-tag) (Shigella flexneri) (UniProt P0A1K9); test: as above
[3] = target: Spa33-FL expressed from pETDuet-Spa33ΔRBS (N-terminal His-tag) (Shigella flexneri) (UniProt P0A1K9); test: as above
[4] = target: Thermotoga maritima FliM with an N-terminal His-tag (Thermotoga maritima) (UniProt Q9WZE6); test: as above
[5] = target: Spa33-C (co-expressed from pRSFDuet-Spa33-C with Spa33-FL(CTD)) (Shigella flexneri) (UniProt P0A1K9); test: as above
[6] = target: Spa33-FL(CTD) (construct comprising only SpoA1 and SpoA2 of Spa33-FL) (Shigella flexneri); test: as above
[7] = target: Spa33-FL/C2(Y221R) (1:2 complex with Y221R in Spa33-FL and in both copies of Spa33-C) (Shigella flexneri) (UniProt P0A1K9); test: as above
[8] = target: Spa33-Ctrx (Spa33-C with a C-terminal thioredoxin fusion) (Shigella flexneri) (UniProt P0A1K9); test: as above
[9] = target: Thermotoga maritima FliN (C-terminal 132 residues of FliY) (Thermotoga maritima); test: as above
[10] = target: Spa33-Cmbp (Spa33-C with a C-terminal maltose binding protein fusion) (Shigella flexneri) (UniProt P0A1K9); test: as above
[11] = target: Spa33-FL/Ctrx2 (1:2 complex of Spa33-FL and Spa33-Ctrx) (Shigella flexneri) (UniProt P0A1K9); test: as above
[12] = target: Spa33-FL/C2 (1:2 complex of His-Spa33-FL and Spa33-C) (Shigella flexneri) (UniProt P0A1K9); test: as above
[13] = target: Spa33-FL/Cstrep2 (1:2 complex of Spa33-FL and Spa33-Cstrep) (Shigella flexneri) (UniProt P0A1K9); test: as above
[14] = target: the molecule itself; test: crystal structure; 2.3 Å; 10 mg/ml Spa33 208-293, 21°C, sitting drop, 10% isopropanol, 0.1 M Na HEPES pH 7.0, 10% PEG 4000
[15] = target: T1, Spa33-FL (full-length Spa33 with an N-terminal His-tag) (Shigella flexneri, UniProt P0A1K9 1-293); test: native MS; purified proteins or co-expressed, co-purified complexes, buffer-exchanged in 200 mM ammonium acetate pH 7.5; non-denaturing conditions; Synapt HDMS; conditions: both partners purified
T1 construct: Spa33 (SctQ), Shigella flexneri, full length; 293 residues by the printed range 192-293 at the extreme C-terminus; also called SctQ; His-Spa33-FL; source: E. coli B834 (DE3), from pET28b-Spa33, purified with Spa33-C (Ni-NTA, SEC)
T1 sequence: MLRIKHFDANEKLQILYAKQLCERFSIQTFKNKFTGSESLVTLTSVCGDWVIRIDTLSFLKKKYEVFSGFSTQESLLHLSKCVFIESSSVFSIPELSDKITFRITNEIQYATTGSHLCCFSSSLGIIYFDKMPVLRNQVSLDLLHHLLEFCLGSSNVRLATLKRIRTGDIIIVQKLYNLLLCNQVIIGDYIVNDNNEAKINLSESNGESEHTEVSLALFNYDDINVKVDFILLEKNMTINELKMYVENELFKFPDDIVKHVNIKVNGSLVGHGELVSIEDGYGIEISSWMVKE

[16] = target: the molecule itself; test: as above
[17] = target: T2, Spa33-FL(Y221R) with an N-terminal His-tag (Shigella flexneri, UniProt P0A1K9 1-293, Y221R); test: as above; conditions: both partners purified
T2 construct: Spa33 (SctQ), Shigella flexneri, full length, Y221R in the SpoA2 domain; also called Spa33-FL of Spa33-FL/C2(Y221R); source: E. coli B834 (DE3), from pET28b-Spa33(Y221R), purified with Spa33-C(Y221R) (Ni-NTA, SEC)
T2 sequence: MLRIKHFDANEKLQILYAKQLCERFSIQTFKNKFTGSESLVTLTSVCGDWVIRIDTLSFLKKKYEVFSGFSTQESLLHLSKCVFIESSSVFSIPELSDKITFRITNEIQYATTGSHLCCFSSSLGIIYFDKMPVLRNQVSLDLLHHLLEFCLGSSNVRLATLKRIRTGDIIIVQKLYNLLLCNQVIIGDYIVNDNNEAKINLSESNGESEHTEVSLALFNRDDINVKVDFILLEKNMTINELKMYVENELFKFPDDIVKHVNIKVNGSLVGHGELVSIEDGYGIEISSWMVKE

Sequence of Thermotoga maritima FliM with an N-terminal His-tag (Thermotoga maritima) (Q9WZE6 whole entry): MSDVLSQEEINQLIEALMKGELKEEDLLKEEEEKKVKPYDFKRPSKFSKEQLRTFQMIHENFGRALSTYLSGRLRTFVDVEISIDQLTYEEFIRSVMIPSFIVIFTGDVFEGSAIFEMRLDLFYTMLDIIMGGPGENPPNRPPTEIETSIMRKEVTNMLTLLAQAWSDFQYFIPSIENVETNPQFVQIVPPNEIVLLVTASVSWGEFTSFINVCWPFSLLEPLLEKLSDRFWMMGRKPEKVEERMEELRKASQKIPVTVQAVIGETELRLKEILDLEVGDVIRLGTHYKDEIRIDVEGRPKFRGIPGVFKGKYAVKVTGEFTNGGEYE

Spa33-C (expressed alone from pET28b-Spa33-C, tag removed, 15N-labelled) (from UniProt P0A1K9 192-293) (domain or fragment)
stoichiometry N [1]: 2

Spa33-Cstrep (Spa33-C with an eight residue C-terminal Strep-tag) (from UniProt P0A1K9 192-293) (domain or fragment)
stoichiometry N [2]: 2 | stoichiometry N [3]: 2

Thermotoga maritima FliY, full length (natural protein)
stoichiometry N [4]: 1

Spa33-C (co-expressed from pRSFDuet-Spa33-C with Spa33-FL(CTD)) (from UniProt P0A1K9 192-293) (domain or fragment)
stoichiometry N [5]: 2 | stoichiometry N [6]: 2

Spa33-FL/C2(Y221R) (1:2 complex with Y221R in Spa33-FL and in both copies of Spa33-C) (from UniProt P0A1K9 1-293; P0A1K9 192-293)
stoichiometry N [7]: 2

Spa33-Ctrx (Spa33-C with a C-terminal thioredoxin fusion) (from UniProt P0A1K9 192-293) (domain or fragment)
stoichiometry N [8]: 2 | stoichiometry N [3]: 2

Spa33-FL(CTD) (construct comprising only SpoA1 and SpoA2 of Spa33-FL) (domain or fragment)
stoichiometry N [6]: 2 and 3

Thermotoga maritima FliN (C-terminal 132 residues of FliY) (domain or fragment)
stoichiometry N [4]: 3 | stoichiometry N [9]: 2

Spa33-Cmbp (Spa33-C with a C-terminal maltose binding protein fusion) (from UniProt P0A1K9 192-293) (domain or fragment)
stoichiometry N [10]: 2 | stoichiometry N [3]: 2

Spa33-FL/Ctrx2 (1:2 complex of Spa33-FL and Spa33-Ctrx) (from UniProt P0A1K9 1-293; P0A1K9 192-293)
stoichiometry N [11]: 2

Spa33-FL/C2 (1:2 complex of His-Spa33-FL and Spa33-C) (from UniProt P0A1K9 1-293; P0A1K9 192-293)
stoichiometry N [12]: 2 and 4 and 6

Spa33-FL/Cstrep2 (1:2 complex of Spa33-FL and Spa33-Cstrep) (from UniProt P0A1K9 1-293; P0A1K9 192-293)
stoichiometry N [13]: 2 and 4

B1: Spa33 208-293 (C-terminal 86 residues of Spa33) (domain or fragment)
chain: ESEHTEVSLALFNYDDINVKVDFILLEKNMTINELKMYVENELFKFPDDIVKHVNIKVNGSLVGHGELVSIEDGYGIEISSWMVKE
notes: Spa33 (SctQ), Shigella flexneri, residues 208-293; Two copies of the dimer in the asymmetric unit; also called SpoA2 domain of Spa33; source: E. coli B834 (DE3), purified (Ni-NTA, carboxypeptidase A, SEC); not shown: His tag, C-terminal, cleaved
binding result [14]: binds

B2: Spa33-C (alternative translation product of spa33, residues 192-293) (domain or fragment)
chain: MNDNNEAKINLSESNGESEHTEVSLALFNYDDINVKVDFILLEKNMTINELKMYVENELFKFPDDIVKHVNIKVNGSLVGHGELVSIEDGYGIEISSWMVKE
modifications: formylmethionine at the N-terminus (expected from the measured mass)
notes: Spa33 (SctQ), Shigella flexneri, residues 192-293; translated from an internal GTG start codon; Forms a homodimer (Spa33-C2) in the native mass spectrum; also called short variant of Spa33; source: E. coli B834 (DE3), made from the internal start site of pET28b-Spa33, co-purified with His-Spa33-FL (Ni-NTA, SEC)
stoichiometry N [15]: 2 | stoichiometry N [16]: 2

B3: Spa33-C(Y221R) (domain or fragment)
chain: MNDNNEAKINLSESNGESEHTEVSLALFNRDDINVKVDFILLEKNMTINELKMYVENELFKFPDDIVKHVNIKVNGSLVGHGELVSIEDGYGIEISSWMVKE
modifications: formylmethionine at the N-terminus (as told for wild-type Spa33-C)
notes: Spa33 (SctQ), Shigella flexneri, residues 192-293 (Spa33-C), Y221R; also called Spa33-C of Spa33-FL/C2(Y221R)
stoichiometry N [17]: 2
